“Also recorded” adds a separate entry of the source.
Columns and labels:
[1] = biological target: T1, α5β1-integrin/uPAR complex (Homo sapiens, UniProt P05556+P08648); assay: Disruption of preformed uPAR/α5β1-integrin complex (co-immunoprecipitation); type: biochemical; settings: cell lysates incubated with 20 μM peptide, 20 min at 4° C., pull-down with anti-α5β1 (HA5)
T1 construct: endogenous in cells; host or cells: T-HEp3 (human epidermoid carcinoma) cell lysate
Method: FIGS. 5A-B show the physical interaction between uPAR and α5β1-integrin. […] D-HEp3 cells were transfected with vector (pcDNA3.1) alone or with constructs expressing uPAR^wt or uPAR^S245A and after 48 hrs the cells were surface biotinylated and lysed as described in the Examples. Half of each lysate (0.8 mg of protein) was immunoprecipitated with 5 μg monoclonal anti-uPAR(R3) antibody and half with 5 μg monoclonal anti-α5β1-integrin (HA5) antibody. Isotype-matched IgG served as negative control. The immunoprecipitates were separated on an SDS-PAGE and the bands were detected with streptavidin-HRP conjugate and ECL. […] The numbers represent uPAR precipitated by anti-α5β1 antibody as percent of total uPAR. The experiment was repeated 5 times using the same and additional anti-integrin and anti-uPAR antibodies with essentially similar results. FIG. 5B is a graph showing the disruption of uPAR and α5β1-integrin complex with peptides 240-248 and S245A. T-HEp3 cells were surface biotinylated and lysed as described in the Examples. The lysate was precleared with isotype-matched IgG and aliquots containing 0.8 mg protein were incubated with peptides 240-248 and S245A (5 μM and 20 μM) or without peptides (Control, C) for 20 min at 4° C. followed by IP with 5 μg of monoclonal anti-α5β1-integrin (HAS) antibody for 90 min. The immunoprecipitates were analyzed as in FIG. 5A and scanned with NIH Image. […]

[2] = biological target: T2, purified α3β1-integrin (Homo sapiens, UniProt P05556+P26006); assay: Solid phase dot-ELISA with α3β1-integrin; type: binding; settings: α3β1-integrin 750 ng/ml, increasing concentrations of immobilized suPAR or peptide
T2 construct: purchased Chemicon International (Temecula, Calif.)
T2 sequence (P26006 33-872 limits assumed): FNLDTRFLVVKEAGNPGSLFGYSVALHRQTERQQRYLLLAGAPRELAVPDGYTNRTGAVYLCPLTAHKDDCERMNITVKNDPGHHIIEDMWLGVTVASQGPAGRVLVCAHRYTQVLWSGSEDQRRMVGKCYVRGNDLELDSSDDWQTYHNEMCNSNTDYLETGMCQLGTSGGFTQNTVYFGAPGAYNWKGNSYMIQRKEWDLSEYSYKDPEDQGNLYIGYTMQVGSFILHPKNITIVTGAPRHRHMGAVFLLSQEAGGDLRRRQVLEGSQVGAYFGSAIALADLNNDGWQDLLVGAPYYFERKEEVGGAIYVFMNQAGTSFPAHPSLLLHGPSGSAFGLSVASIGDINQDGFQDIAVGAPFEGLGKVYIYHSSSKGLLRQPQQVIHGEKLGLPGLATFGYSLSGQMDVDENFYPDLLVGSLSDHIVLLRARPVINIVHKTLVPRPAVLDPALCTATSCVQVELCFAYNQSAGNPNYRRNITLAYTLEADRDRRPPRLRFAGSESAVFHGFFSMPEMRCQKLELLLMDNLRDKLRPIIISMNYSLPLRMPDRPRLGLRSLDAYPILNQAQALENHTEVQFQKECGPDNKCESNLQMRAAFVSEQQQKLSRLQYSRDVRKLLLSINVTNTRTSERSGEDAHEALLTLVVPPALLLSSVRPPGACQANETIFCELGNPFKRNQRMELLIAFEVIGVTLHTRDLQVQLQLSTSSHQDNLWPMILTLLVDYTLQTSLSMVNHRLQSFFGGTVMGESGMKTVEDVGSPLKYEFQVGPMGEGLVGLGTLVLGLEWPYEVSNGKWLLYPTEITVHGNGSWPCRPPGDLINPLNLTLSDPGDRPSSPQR
T2 sequence (P26006 873-1051 limits assumed): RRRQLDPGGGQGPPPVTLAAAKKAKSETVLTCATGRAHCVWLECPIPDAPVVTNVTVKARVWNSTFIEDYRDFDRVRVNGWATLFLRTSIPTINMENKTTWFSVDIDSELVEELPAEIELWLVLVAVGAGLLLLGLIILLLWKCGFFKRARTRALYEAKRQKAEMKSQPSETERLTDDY
T2 sequence (P05556 21-798): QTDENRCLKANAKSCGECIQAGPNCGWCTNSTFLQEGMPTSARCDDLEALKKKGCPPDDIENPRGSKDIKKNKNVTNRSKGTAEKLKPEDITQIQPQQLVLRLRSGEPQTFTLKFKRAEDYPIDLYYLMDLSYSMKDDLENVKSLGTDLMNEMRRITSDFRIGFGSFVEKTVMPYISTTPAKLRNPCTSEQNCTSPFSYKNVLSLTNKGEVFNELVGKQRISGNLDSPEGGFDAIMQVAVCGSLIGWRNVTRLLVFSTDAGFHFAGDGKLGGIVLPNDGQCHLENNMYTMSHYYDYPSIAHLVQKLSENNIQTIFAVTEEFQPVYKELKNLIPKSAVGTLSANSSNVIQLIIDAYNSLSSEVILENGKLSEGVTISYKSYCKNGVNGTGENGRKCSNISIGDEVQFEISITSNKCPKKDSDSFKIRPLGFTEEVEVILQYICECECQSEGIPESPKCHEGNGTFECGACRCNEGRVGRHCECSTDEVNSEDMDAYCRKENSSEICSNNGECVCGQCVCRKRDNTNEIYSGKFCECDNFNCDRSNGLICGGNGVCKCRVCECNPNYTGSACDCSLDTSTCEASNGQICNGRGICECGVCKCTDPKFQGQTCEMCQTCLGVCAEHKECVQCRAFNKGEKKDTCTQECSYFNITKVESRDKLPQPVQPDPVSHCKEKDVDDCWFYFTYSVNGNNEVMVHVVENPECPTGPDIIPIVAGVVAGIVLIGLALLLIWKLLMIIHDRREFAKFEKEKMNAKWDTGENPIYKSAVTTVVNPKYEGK
Method: FIGS. 1A-H show the interaction between α5β1-integrin and immobilized uPAR and uPAR-derived synthetic peptides through solid-phase dot-ELISA. […] Bound integrin was detected with anti-α5 integrin antibody followed by goat anti-rabbit IgG (H+L) HRP conjugated secondary antibody and developed with enhanced chemiluminescence (“ECL”). FIG. 1B is a graph showing that binding of integrin to suPAR is saturable. SuPAR (1.5 μg) was immobilized on nitrocellulose membrane in triplicates, incubated with 0, 0.1, 0.5, 1, 2, and 4 μg/ml of α5β1-integrin and tested for integrin binding as in FIG. 1A. The dots were scanned with NIH Image. Mean and SE are shown. […] Peptides representing regions located in each of the three uPAR-domains were immobilized, incubated with α5β1-integrin, and analyzed as in FIG. 1A. Only peptide 240-248 binds α5β1-integrin. FIG. 1D is a graph showing that peptide 240-248 inhibits integrin binding to suPAR. The α5β1-integrin (750 ng/ml) was pre-incubated for 15 min at room temperature with 100 fold molar excess of 240-248 or 17-24 peptides, or with no peptide (Control) and the mixtures were applied to immobilized suPAR (1.5 μg), 2 dots per mixture, and developed as in FIG. 1A. […] Bound integrins were detected with the appropriate previously titrated antibodies followed by goat anti-rabbit IgG (H+L) HRP conjugated secondary antibody and detection with ECL. […]

T1 sequence (P08648 42-894 limits assumed): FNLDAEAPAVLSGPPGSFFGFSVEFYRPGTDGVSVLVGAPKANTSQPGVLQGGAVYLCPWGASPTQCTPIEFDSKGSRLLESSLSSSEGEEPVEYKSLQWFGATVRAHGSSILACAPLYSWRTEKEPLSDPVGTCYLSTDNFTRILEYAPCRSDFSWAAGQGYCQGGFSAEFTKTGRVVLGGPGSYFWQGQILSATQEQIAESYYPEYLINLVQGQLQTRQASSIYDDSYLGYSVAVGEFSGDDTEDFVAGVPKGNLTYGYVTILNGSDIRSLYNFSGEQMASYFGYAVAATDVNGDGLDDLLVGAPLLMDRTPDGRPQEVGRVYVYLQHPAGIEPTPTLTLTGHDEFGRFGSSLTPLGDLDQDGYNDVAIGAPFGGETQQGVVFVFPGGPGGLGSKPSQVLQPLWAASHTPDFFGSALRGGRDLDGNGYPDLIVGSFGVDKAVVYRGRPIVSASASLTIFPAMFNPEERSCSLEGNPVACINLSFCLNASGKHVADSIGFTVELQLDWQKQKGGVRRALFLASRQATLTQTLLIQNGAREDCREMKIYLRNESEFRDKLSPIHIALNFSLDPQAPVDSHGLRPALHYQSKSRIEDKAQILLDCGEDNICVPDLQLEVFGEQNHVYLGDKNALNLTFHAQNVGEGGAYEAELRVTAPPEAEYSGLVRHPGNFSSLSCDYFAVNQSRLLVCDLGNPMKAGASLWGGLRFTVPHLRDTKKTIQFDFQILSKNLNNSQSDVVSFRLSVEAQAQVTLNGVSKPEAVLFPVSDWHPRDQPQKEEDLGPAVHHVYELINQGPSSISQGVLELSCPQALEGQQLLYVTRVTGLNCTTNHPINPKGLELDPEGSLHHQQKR
T1 sequence (P08648 895-1049 limits assumed): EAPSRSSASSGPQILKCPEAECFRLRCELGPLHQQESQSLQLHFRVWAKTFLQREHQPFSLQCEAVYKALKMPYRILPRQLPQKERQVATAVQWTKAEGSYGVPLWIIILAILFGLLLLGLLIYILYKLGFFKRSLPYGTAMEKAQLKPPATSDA
T1 sequence (P05556 21-798): as the sequence (P05556 21-798) above

peptide 240-248: synthetic uPAR-derived peptide, domain III residues 240-248: GCATASMCQ (SEQ ID NO:9)
disruption of preformed uPAR/integrin complex [1]: disrupted
α3β1-integrin binding compared to α5β1-integrin [2]: dots of much lesser intensity; also recorded: bound only weakly

Source: patent US20100249184A1, “INDUCTION AND/OR MAINTENANCE OF TUMOR DORMANCY BY DISRUPTION OF UROKINASE PLASMINOGEN ACTIVATOR RECEPTOR-INTEGRIN INTERACTION” (MOUNT SINAI SCHOOL OF MEDICINE, priority 2007, published 2010)
